Test results taken from PMC6306002.

Test system: T1, OhsR:C125S C125S (Corynebacterium glutamicum), ORF:a3d30e29
T1 sequence: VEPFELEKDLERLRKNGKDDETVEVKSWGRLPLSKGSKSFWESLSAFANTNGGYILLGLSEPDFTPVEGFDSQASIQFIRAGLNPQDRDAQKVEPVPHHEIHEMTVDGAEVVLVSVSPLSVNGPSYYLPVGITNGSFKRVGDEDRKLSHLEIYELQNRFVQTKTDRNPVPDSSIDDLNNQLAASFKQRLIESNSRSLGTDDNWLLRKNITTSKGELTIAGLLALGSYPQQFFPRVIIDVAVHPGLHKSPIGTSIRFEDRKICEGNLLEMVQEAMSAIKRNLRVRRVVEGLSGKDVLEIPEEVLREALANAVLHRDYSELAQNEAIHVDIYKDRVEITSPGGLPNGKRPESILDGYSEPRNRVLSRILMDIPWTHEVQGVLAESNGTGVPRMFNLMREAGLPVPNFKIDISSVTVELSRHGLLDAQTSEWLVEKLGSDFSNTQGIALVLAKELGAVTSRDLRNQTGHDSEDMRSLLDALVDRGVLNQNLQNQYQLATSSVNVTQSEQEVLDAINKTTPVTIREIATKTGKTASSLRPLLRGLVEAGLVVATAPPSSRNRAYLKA
Test: EMSA
Conditions: EMSA: 20 mM Tris-HCl pH 7.4, 4 mM MgCl2, 100 mM NaCl, 10% glycerol, room temperature 30 min; 20 ng DNA, 0-4 ug OhsR; 6% native PAGE, 0.5x TBE, SYBR Green

For “CACCTTGTTGGTGGGCCGGGATTTTTGTTGTTTAGATTTTTGAAAGCACACTTTTGTCCCTTAACTAGTGCGTGTGTACATTCGACACCAAGATTTGGGCAATATGGTGCCCAAAATCAGGAAATCTTGCTGTCTAATGCACAACGGAAAACTGCTCACGGACGAACTAGTTGTAGCGAGCGTATTCTTTGTGTTCTCTC (double strand) [Pohr (ohr promoter, 200 bp)]”, the binding was “no binding”.
